Measured values as given in publication PMC4147282, “Aromatic Amino Acid Mutagenesis at the Substrate Binding Pocket of Yarrowia lipolytica Lipase Lip2 Affects Its Activity and Thermostability” (The Scientific World Journal, 2014).

Substrate: CCCCCCCCCCCCCCCC(=O)Oc1ccc([N+](=O)[O-])cc1
Test: purified protein
Format: biochemical, Yarrowia lipolytica
Conditions: 50 mmol PBS, pH 8.0, 40°C, substrate 0.2–1 mmol

B1: YLLip2 (lipase2 from Yarrowia lipolytica) (Yarrowia lipolytica) (protein)
chain: VYTSTETSHIDQESYNFFEKYARLANIGYCVGPGTKIFKPFNCGLQCAHFPNVELIEEFHDPRLIFDVSGYLAVDHASKQIYLVIRGTHSLEDVITDIRIMQAPLTNFDLAANISSTATCDDCLVHNGFIQSYNNTYNQIGPKLDSVIEQYPDYQIAVTGHSLGGAAALLFGINLKVNGHDPLVVTLGQPIVGNAGFANWVDKLFFGQENPDVSKVSKDRKLYRITHRGDIVPQVPFWDGYQHCSGEVFIDWPLIHPPLSNVVMCQGQSNKQCSAGNTLLQQVNVIGNHLQYFVTEGVCGI
notes: mature YLLip2, own prepro replaced by XPR2pre secretion signal, N-terminal 6xHis tag kept (HHHHHH-VYTST...); secreted from Y. lipolytica JMY1212 (plasmid pYL-H6-mYLLip2); IMAC purified; approx. 38 kDa on SDS-PAGE
B1 was tested, and the kcat was 157 ± 1 s⁻¹.
